Assay results: publication PMC2735609 (Cellular signalling, 2009)

Legend:
Assay in all cases: radioligand binding
[1] = molecular target: hLHR(D405N), on intact HEK293 cells (human, UniProt P22888 27-699, D405N)
[2] = molecular target: hLHR(Y546F), on intact HEK293 cells (human, UniProt P22888 27-699, Y546F)
[3] = molecular target: hLHR(D405N,Y546F), on intact HEK293 cells (human, UniProt P22888 27-699, D405N | Y546F)
Sequence of hLHR(D405N,Y546F), on intact HEK293 cells (P22888 27-699 D405N/Y546F): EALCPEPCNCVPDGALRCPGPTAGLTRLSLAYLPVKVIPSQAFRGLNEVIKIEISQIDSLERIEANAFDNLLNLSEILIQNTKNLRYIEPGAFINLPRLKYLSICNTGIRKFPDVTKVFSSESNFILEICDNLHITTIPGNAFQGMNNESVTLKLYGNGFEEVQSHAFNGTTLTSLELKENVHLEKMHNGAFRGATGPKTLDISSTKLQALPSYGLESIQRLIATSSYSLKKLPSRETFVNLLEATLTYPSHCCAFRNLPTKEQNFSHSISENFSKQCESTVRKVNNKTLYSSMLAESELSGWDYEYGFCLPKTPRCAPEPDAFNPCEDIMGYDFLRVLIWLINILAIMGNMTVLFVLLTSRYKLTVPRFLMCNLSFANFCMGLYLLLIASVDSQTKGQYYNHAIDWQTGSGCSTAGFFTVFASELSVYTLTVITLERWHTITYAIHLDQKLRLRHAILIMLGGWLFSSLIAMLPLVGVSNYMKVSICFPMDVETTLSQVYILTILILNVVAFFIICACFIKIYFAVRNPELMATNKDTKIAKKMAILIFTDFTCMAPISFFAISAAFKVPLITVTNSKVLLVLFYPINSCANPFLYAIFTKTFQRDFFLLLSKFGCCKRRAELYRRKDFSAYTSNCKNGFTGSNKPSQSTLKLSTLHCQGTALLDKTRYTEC

Sequence of hLHR(Y546F), on intact HEK293 cells (P22888 27-699 Y546F): as the sequence (P22888 27-699 D405N/Y546F) above, with N379D counted along it
Sequence of hLHR(D405N), on intact HEK293 cells (P22888 27-699 D405N): as the sequence (P22888 27-699 D405N/Y546F) above, with F520Y counted along it

B1: human chorionic gonadotropin (hCG), highly purified recombinant, 125I-labelled (ligand)
chain 1: not shown
chain 2: SKEPLRPRCRPINATLAVEKEGCPVCITVNTTICAGYCPTMTRVLQGVLPALPQVVCNYRDVRFESIRLPGCPRGVNPVVSYAVALSCQCALCRRSTTDCGGPKDHPLTCDDPRFQDSSSSKAPPPSLPSPSRLPGPSDTPILPQ
modifications: 125I label (which chain is not stated) | 125I label (which chain is not stated)
Question: Which “hCG bound to intact cells” value [1] does the source give for B1 here?
Answer: 20.4 ng hCG/10^6 cells

Question: And the “hCG bound to intact cells” value [2]?
Answer: 22.6 ng hCG/10^6 cells

Question: What about the “hCG bound to intact cells” value [3] of the same binder?
Answer: 8.7 ng hCG/10^6 cells
